# Measurements as given in the supplement of paper PMC9112550, “Optimization of the antimicrobial peptide Bac7 by deep mutational scanning” (BMC Biology, 2022).
# Tested on: Escherichia coli TOP10
# Experiment: shrunken log2 fold change of peptide-encoding DNA abundance (4.5 h post-induction vs induction); higher = less antimicrobial activity (less host growth inhibition)
# Details: time post-induction: 4.5 h; library: site-saturation at positions 5, 18, 19, 20
# 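Note: peptides expressed intracellularly from a pBAD plasmid library in pooled LB shake-flask culture, induced with 0.3% L-arabinose, DNA abundance read by NGS, three biological replicates, DESeq2 with apeglm shrinkage.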
row,Sequence,shrunken log2 fold change
1,RRIRIRPPRLPRPRPRPYILPRP,-0.463
2,RRIRKRPPRLPRPRPRPAPYPRP,0.212
3,RRIRCRPPRLPRPRPRPMLVPRP,-0.144
4,RRIRGRPPRLPRPRPRPDLGPRP,0.688
5,RRIRGRPPRLPRPRPRPVPVPRP,0.629
6,RRIRPRPPRLPRPRPRPSEHPRP,-0.233
7,RRIRMRPPRLPRPRPRPCKWPRP,0.0169
8,RRIRKRPPRLPRPRPRPSSAPRP,0.214
9,RRIRARPPRLPRPRPRPSTYPRP,-0.356
10,RRIRERPPRLPRPRPRPPESPRP,0.16
11,RRIRDRPPRLPRPRPRPWTRPRP,-0.231
12,RRIRSRPPRLPRPRPRPQRSPRP,0.316
13,RRIRRRPPRLPRPRPRPIVGPRP,0.0287
14,RRIRERPPRLPRPRPRPYASPRP,-0.303
15,RRIRFRPPRLPRPRPRPYVEPRP,-0.315
16,RRIRKRPPRLPRPRPRPGGAPRP,0.729
17,RRIRTRPPRLPRPRPRPDAVPRP,0.171
18,RRIRTRPPRLPRPRPRPYPYPRP,-0.0787
19,RRIRCRPPRLPRPRPRPTQHPRP,0.349
20,RRIRKRPPRLPRPRPRPSQDPRP,0.107
21,RRIRARPPRLPRPRPRPPMIPRP,-0.172
22,RRIRVRPPRLPRPRPRPFKEPRP,0.121
23,RRIRKRPPRLPRPRPRPKAYPRP,0.0431
24,RRIRQRPPRLPRPRPRPQKYPRP,-0.517
25,RRIRQRPPRLPRPRPRPADPPRP,0.209

row,Sequence,shrunken log2 fold change
1,RRIRVRPPRLPRPRPRPCDPPRP,-0.107
2,RRIRTRPPRLPRPRPRPFNGPRP,-0.142
3,RRIRRRPPRLPRPRPRPIHNPRP,-0.329
4,RRIRARPPRLPRPRPRPQCFPRP,0.1
5,RRIRARPPRLPRPRPRPHHAPRP,0.0775
6,RRIRCRPPRLPRPRPRPLGRPRP,-0.151
7,RRIRWRPPRLPRPRPRPDIPPRP,-0.367
8,RRIRYRPPRLPRPRPRPNCKPRP,-0.504
9,RRIRGRPPRLPRPRPRPYCNPRP,-0.411
10,RRIRIRPPRLPRPRPRPNKFPRP,-0.992
11,RRIRLRPPRLPRPRPRPRIMPRP,-0.333
12,RRIRERPPRLPRPRPRPGSLPRP,-0.431
13,RRIRFRPPRLPRPRPRPGPWPRP,0.216
14,RRIRHRPPRLPRPRPRPTGPPRP,0.149
15,RRIRMRPPRLPRPRPRPIWRPRP,0.128
16,RRIRYRPPRLPRPRPRPICNPRP,-0.332
17,RRIRPRPPRLPRPRPRPNECPRP,-0.217
18,RRIRKRPPRLPRPRPRPYRVPRP,-0.0373
19,RRIRLRPPRLPRPRPRPKIPPRP,-0.292
20,RRIRKRPPRLPRPRPRPWKMPRP,0.0749
21,RRIRFRPPRLPRPRPRPIMYPRP,-0.33
22,RRIRIRPPRLPRPRPRPICKPRP,-0.199
23,RRIRARPPRLPRPRPRPAEVPRP,0.129
24,RRIRQRPPRLPRPRPRPMSLPRP,-0.13
25,RRIRVRPPRLPRPRPRPRKMPRP,0.299

row,Sequence,shrunken log2 fold change
1,RRIRIRPPRLPRPRPRPGTTPRP,0.252
2,RRIRIRPPRLPRPRPRPLRDPRP,0.0322
3,RRIRQRPPRLPRPRPRPAGWPRP,0.808
4,RRIRERPPRLPRPRPRPGQIPRP,0.0685
5,RRIRVRPPRLPRPRPRPIVRPRP,-0.0635
6,RRIRMRPPRLPRPRPRPVQVPRP,-0.00884
7,RRIRERPPRLPRPRPRPRLQPRP,0.0143
8,RRIRCRPPRLPRPRPRPMAIPRP,-0.132
9,RRIRERPPRLPRPRPRPQKPPRP,0.0657
10,RRIRERPPRLPRPRPRPPIIPRP,-0.562
11,RRIRDRPPRLPRPRPRPSRTPRP,0.208
12,RRIRRRPPRLPRPRPRPKMAPRP,0.201
13,RRIRMRPPRLPRPRPRPCPDPRP,-0.0886
14,RRIRTRPPRLPRPRPRPGEFPRP,-0.0751
15,RRIRRRPPRLPRPRPRPHEGPRP,0.28
16,RRIRDRPPRLPRPRPRPGRGPRP,0.725
17,RRIRKRPPRLPRPRPRPLCPPRP,-0.145
18,RRIRPRPPRLPRPRPRPSHDPRP,-0.339
19,RRIRWRPPRLPRPRPRPRSEPRP,0.0877
20,RRIRTRPPRLPRPRPRPGYSPRP,1.78
21,RRIRSRPPRLPRPRPRPREKPRP,0.0145
22,RRIRGRPPRLPRPRPRPLKHPRP,0.0581
23,RRIRARPPRLPRPRPRPTDGPRP,0.0971
24,RRIRCRPPRLPRPRPRPNYYPRP,-0.868
25,RRIRKRPPRLPRPRPRPFMFPRP,-0.0278

row,Sequence,shrunken log2 fold change
1,RRIRTRPPRLPRPRPRPWGFPRP,0.0102
2,RRIRERPPRLPRPRPRPHEEPRP,0.13
3,RRIRWRPPRLPRPRPRPPYIPRP,-0.3
4,RRIRRRPPRLPRPRPRPWKFPRP,-0.0344
5,RRIRSRPPRLPRPRPRPAVGPRP,0.391
6,RRIRRRPPRLPRPRPRPVQQPRP,0.213
7,RRIRERPPRLPRPRPRPTPSPRP,0.14
8,RRIRWRPPRLPRPRPRPQSCPRP,0.0975
9,RRIRMRPPRLPRPRPRPDVIPRP,-0.0756
10,RRIRERPPRLPRPRPRPQKQPRP,-0.0621
11,RRIRERPPRLPRPRPRPFPIPRP,0.118
12,RRIRKRPPRLPRPRPRPEKVPRP,0.112
13,RRIRSRPPRLPRPRPRPDMQPRP,-0.00211
14,RRIRERPPRLPRPRPRPRGPPRP,0.662
15,RRIRFRPPRLPRPRPRPQCMPRP,0.000372
16,RRIRTRPPRLPRPRPRPAPNPRP,0.0436
17,RRIRARPPRLPRPRPRPACIPRP,0.171
18,RRIRYRPPRLPRPRPRPCPEPRP,-0.421
19,RRIRSRPPRLPRPRPRPFFDPRP,0.192
20,RRIRQRPPRLPRPRPRPQWKPRP,-0.0075
21,RRIRLRPPRLPRPRPRPAIGPRP,-0.00988
22,RRIRHRPPRLPRPRPRPEPEPRP,0.241
23,RRIRYRPPRLPRPRPRPAWLPRP,-0.0755
24,RRIRPRPPRLPRPRPRPFWHPRP,-0.017
25,RRIRFRPPRLPRPRPRPTWHPRP,-0.0992

row,Sequence,shrunken log2 fold change
1,RRIRHRPPRLPRPRPRPPKNPRP,-0.0129
2,RRIRRRPPRLPRPRPRPVRWPRP,0.825
3,RRIRARPPRLPRPRPRPKVGPRP,0.284
4,RRIRSRPPRLPRPRPRPRKAPRP,0.0188
5,RRIRQRPPRLPRPRPRPKWVPRP,0.0809
6,RRIRHRPPRLPRPRPRPAHVPRP,0.128
7,RRIRCRPPRLPRPRPRPRRMPRP,0.00514
8,RRIRSRPPRLPRPRPRPNTAPRP,-0.0399
9,RRIRCRPPRLPRPRPRPRKQPRP,0.284
10,RRIRMRPPRLPRPRPRPWSYPRP,0.206
11,RRIRPRPPRLPRPRPRPNGDPRP,-0.0945
12,RRIRFRPPRLPRPRPRPFGMPRP,-0.223
13,RRIRYRPPRLPRPRPRPDTQPRP,-0.00672
14,RRIRLRPPRLPRPRPRPQNNPRP,-0.585
15,RRIRCRPPRLPRPRPRPVLKPRP,0.181
16,RRIRDRPPRLPRPRPRPALWPRP,1.05
17,RRIRFRPPRLPRPRPRPQMIPRP,-0.484
18,RRIRCRPPRLPRPRPRPRANPRP,0.255
19,RRIRLRPPRLPRPRPRPENWPRP,0.046
20,RRIRVRPPRLPRPRPRPWCYPRP,-0.366
21,RRIRTRPPRLPRPRPRPFFCPRP,-0.0401
22,RRIRMRPPRLPRPRPRPHGQPRP,0.155
23,RRIRGRPPRLPRPRPRPVQMPRP,0.844
24,RRIRRRPPRLPRPRPRPARLPRP,0.269
25,RRIRMRPPRLPRPRPRPFIFPRP,-0.233

row,Sequence,shrunken log2 fold change
1,RRIRKRPPRLPRPRPRPEMRPRP,0.105
2,RRIRARPPRLPRPRPRPIFWPRP,0.305
3,RRIRVRPPRLPRPRPRPHWAPRP,0.142
4,RRIRHRPPRLPRPRPRPTHSPRP,-0.192
5,RRIRRRPPRLPRPRPRPNRNPRP,0.0469
6,RRIRHRPPRLPRPRPRPSSLPRP,-0.153
7,RRIRLRPPRLPRPRPRPAPVPRP,0.23
8,RRIRKRPPRLPRPRPRPTHYPRP,-0.134
9,RRIRRRPPRLPRPRPRPKRIPRP,0.191
10,RRIRNRPPRLPRPRPRPDGYPRP,0.171
11,RRIRKRPPRLPRPRPRPYQTPRP,0.0193
12,RRIRKRPPRLPRPRPRPHWPPRP,0.31
13,RRIRHRPPRLPRPRPRPSTYPRP,-0.202
14,RRIRGRPPRLPRPRPRPFAAPRP,1.82
15,RRIRSRPPRLPRPRPRPSWWPRP,0.0841
16,RRIRKRPPRLPRPRPRPACEPRP,0.168
17,RRIRARPPRLPRPRPRPGRAPRP,0.731
18,RRIRYRPPRLPRPRPRPIKYPRP,-0.0893
19,RRIRARPPRLPRPRPRPTRTPRP,0.653
20,RRIRGRPPRLPRPRPRPLASPRP,0.894
21,RRIRHRPPRLPRPRPRPGVGPRP,0.146
22,RRIRMRPPRLPRPRPRPIMWPRP,-0.042
23,RRIRSRPPRLPRPRPRPYRSPRP,-0.47
24,RRIRPRPPRLPRPRPRPHAPPRP,0.082
25,RRIRMRPPRLPRPRPRPMYMPRP,0.0751
